The values that follow come from PMC6511849 (Nucleic Acids Research, 2019).

Non-standard residues stand in square brackets, D forms with d. No end group written: not given here. *: point of attachment. FITC = O=C1OC2(c3ccc(O)cc3Oc3cc(O)ccc32)c2ccc(NC(=S)*)cc21; pS = N[C@@H](COP(=O)(O)O)C(=O)O; Ahx = NCCCCCC(=O)O

Sequences and labels used below:
T1: CPSF6 D23-4Glu peptide (human, UniProt Q16630 509-528, K510E | R512E | R522E | R524E, FITC-Ahx label)
T1 peptide: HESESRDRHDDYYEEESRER

T2: CPSF6 D2P-D3 peptide (human, UniProt Q16630 509-528)
T2 peptide: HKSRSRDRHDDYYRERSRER

T3: ERERERER backbone with Tyr at position 1
T3 peptide: {FITC-Ahx}-YRERERER

B1: transportin 3 (TNPO3) (natural protein)
chain: MEGAKPTLQLVYQAVQALYHDPDPSGKERASFWLGELQRSVHAWEISDQLLQIRQDVESCYFAAQTMKMKIQTSFYELPTDSHASLRDSLLTHIQNLKDLSPVIVTQLALAIADLALQMPSWKGCVQTLVEKYSNDVTSLPFLLEILTVLPEEVHSRSLRIGANRRTEIIEDLAFYSSTVVSLLMTCVEKAGTDEKMLMKVFRCLGSWFNLGVLDSNFMANNKLLALLFEVLQQDKTSSNLHEAASDCVCSALYAIENVETNLPLAMQLFQGVLTLETAYHMAVAREDLDKVLNYCRIFTELCETFLEKIVCTPGQGLGDLRTLELLLICAGHPQYEVVEISFNFWYRLGEHLYKTNDEVIHGIFKAYIQRLLHALARHCQLEPDHEGVPEETDDFGEFRMRVSDLVKDLIFLIGSMECFAQLYSTLKEGNPPWEVTEAVLFIMAAIAKSVDPENNPTLVEVLEGVVRLPETVHTAVRYTSIELVGEMSEVVDRNPQFLDPVLGYLMKGLCEKPLASAAAKAIHNICSVCRDHMAQHFNGLLEIARSLDSFLLSPEAAVGLLKGTALVLARLPLDKITECLSELCSVQVMALKKLLSQEPSNGISSDPTVFLDRLAVIFRHTNPIVENGQTHPCQKVIQEIWPVLSETLNKHRADNRIVERCCRCLRFAVRCVGKGSAALLQPLVTQMVNVYHVHQHSCFLYLGSILVDEYGMEEGCRQGLLDMLQALCIPTFQLLEQQNGLQNHPDTVDDLFRLATRFIQRSPVTLLRSQVVIPILQWAIASTTLDHRDANCSVMRFLRDLIHTGVANDHEEDFELRKELIGQVMNQLGQQLVSQLLHTCCFCLPPYTLPDVAEVLWEIMQVDRPTFCRWLENSLKGLPKETTVGAVTVTHKQLTDFHKQVTSAEECKQVCWALRDFTRLFR
B2: D3P peptide with Glu for Tyr at position 1 (ERERERER backbone with phosphoserine at position 5) (peptide)
peptide: {FITC-Ahx}-ERER[pS]RER

One test addresses TNPO3 (UniProt Q9Y5L0). The test is described as follows: fluorescence polarisation titration. The note with it: reference: unmodified D23 peptide.
Test [1] addresses GST-RSLD-WT, non-phosphorylated (expressed without CLK1) (human). Description: pull-down.
Test [2] has as its target B2. The test is described as follows: fluorescence polarisation.
The target of the next test is T1, CPSF6 D23-4Glu peptide. Description: fluorescence polarisation.
For a further test, the target named is T2, CPSF6 D2P-D3 peptide. The test is described as follows: fluorescence polarisation. Background: Polarisation of emitted light reports the rotation of a fluorescent probe.
Test [3] deals with T3, ERERERER backbone with Tyr at position 1. The test is described as follows: fluorescence polarisation.
In test [4] the target is SRSF1 RSP peptide (phosphorylated 8-mer). Description: fluorescence polarisation.
Test [5] deals with CPSF6 D1 peptide (unmodified 8-mer) (human). The test is described as follows: fluorescence polarisation.
For test [6], the target named is SRSF1 RS peptide (unmodified 8-mer). Description: fluorescence polarisation.
In test [7] the target is ER/S peptide (D3 peptide with Glu for Tyr at position 1) (human) (UniProt Q16630). Description: fluorescence polarisation.
Sequence of ER/S peptide (D3 peptide with Glu for Tyr at position 1) (human) (Q16630 whole entry, looked up, tested part not stated): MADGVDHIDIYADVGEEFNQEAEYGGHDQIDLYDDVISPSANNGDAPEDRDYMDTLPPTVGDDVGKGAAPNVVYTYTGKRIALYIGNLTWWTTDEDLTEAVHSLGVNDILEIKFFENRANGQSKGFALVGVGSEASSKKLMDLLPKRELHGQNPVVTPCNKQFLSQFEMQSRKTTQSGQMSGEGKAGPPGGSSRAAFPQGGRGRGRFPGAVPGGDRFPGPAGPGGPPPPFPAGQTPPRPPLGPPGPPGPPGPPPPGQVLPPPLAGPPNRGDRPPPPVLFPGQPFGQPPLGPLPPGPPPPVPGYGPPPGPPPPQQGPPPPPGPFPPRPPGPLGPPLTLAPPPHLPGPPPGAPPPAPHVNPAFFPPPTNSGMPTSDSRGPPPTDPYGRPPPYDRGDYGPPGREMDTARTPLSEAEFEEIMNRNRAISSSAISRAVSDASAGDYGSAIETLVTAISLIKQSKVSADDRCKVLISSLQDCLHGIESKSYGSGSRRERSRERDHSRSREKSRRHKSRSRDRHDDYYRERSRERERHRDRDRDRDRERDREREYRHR
The target in test [8] is CPSF6 D2 peptide (unmodified 8-mer) (human). Description: fluorescence polarisation.
The test “transportin 3 (TNPO3)” deals with B1. Description: fluorescence polarisation.

Sequence of GST-RSLD-WT, non-phosphorylated (expressed without CLK1) (human) (Q16630 whole entry): as the sequence (Q16630 whole entry, looked up, tested part not stated) above

Regarding “CPSF6 D2-D3 region 20-mer (D23) (from UniProt Q16630) D2P-D3P peptide”, in the test with TNPO3 (sites S511,S513,S525), the fold change entry is recorded as “stronger”.
In the case of “CPSF6 D2-D3 region 20-mer (D23) (from UniProt Q16630) D2-D3P peptide”, the fold change entry in the test with TNPO3 (sites S525) was “stronger”.
Consider “CPSF6 D2-D3 region 20-mer (D23) (from UniProt Q16630) D2P-D3 peptide”, for which, in the test with TNPO3 (sites S511,S513), the fold change entry is “stronger”.
B1 yielded a percent of input TNPO3 recovered in test [1] of 30%. The “fold increase of affinity against the ERERERER backbone” value in test [2] is about 5 fold; in [3], about 10 fold. For the same molecule, the “fold reduction of affinity against the D23 peptide” value in the test with CPSF6 D23-4Glu peptide is about 25 fold. Further, in the test with CPSF6 D2P-D3 peptide, the “fold increase of affinity against the D23 peptide” value was about 3.3 fold. Also, the Kd in test [4] was 1.3 µM; in test [5], 141 µM; in test [6], over 1000 µM; in test [7], over 1000 µM; in test [8], over 1000 µM.
B2: in the test with transportin 3 (TNPO3), the Kd was found to be 17.1 µM.

For orientation: Kd means a measure of binding affinity in units of concentration. Read a low Kd as higher affinity.
